Experiment: label from the status in PepcDB records
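Note: failed if final PepcDB status was selected cloned or expressed and not failed if soluble or beyond.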

Row | Sequence | protein production
1 | MGEIRNYIKLILIGVAILVTVTMIISATGCDILPPPASAIKPPQYINASSGEVEDPKAIARRFLTPGTYFSYPTHPRNADAVWEVDIDGDGRAELLTLYRGRDLKNNGVEVFGVFILKQDENHEWQIFWEQQYTANIVALDWADVRDITGDNYPELLIGWNIGYRIGSNLDIYSLKEEDKPRLISSIKYSEIVGIEDRRGINNEIKPVLMMYLFDEEMYESENEGRKDEYFHILQWDYKEWMGGGLVEADDFYASYYVNVIEDLKESLERYSNNYYQWYILALAQLRSGKPMDALESVGKVLEITQRYINRHGERTVKEVFKYQKKARILKAAAYIKMGKYHESIIESNYVLGNYDIDDKELAQIYLNLGYAYAGLKQYEMAGTYFNKSCETAETVYKEGTALYLLNSYKAKKQLEYIKPFLTSSH | failed
2 | KRVFGFVSAKGGDGGSCIAANFAFALSQEPDIHVLAVDISLPFGDLDMYLSGNTHSQDLADISNASDRLDKSLLDTMVQHISPSLDLIPSPATFEKIVNIEPERVSDLIHIAASFYDYIIVDFGASIDHVGVWVLEHLDELCIVTTPSLQSLRRAGQLLKLCKEFEKPISRIEIILNRADTNSRITSDEIEKVIGRPISKRIPQDEDAMQESLLSGQSVLKVAPKSQLSKTIVDWALHLNGVSRPNKRSIWERLKIK | not failed
3 | MSGVKIAFIRHHDLWIKVDGKEKQLTKGEYITGPKWSYDGEWLAYVKGEKQNTLELYRLKDGKKVTPFHSEVSNYQWSPTENIIAFIFTGTLHTFKVEKKNADFENVSAGVGDYAWYPNGKKFLVSSEAHLLPTGWTGAQLYEVQKDAHMNPHKMKHLYALPNEHDDFLALVASGFQWSPDQKWISFLAVPTASWSADSNTLCLVRADGSRFEKVDQMLLNTQWFKWAPANNILAYIEGSGRVALENKHLKVKELPALQQNTFTPKGYVDWDFTWKNDNVIIVSRAKEAGIETPPEKRPLPSLYEIDSTSDEQHRITKPPHRQGDYHPLFMNKSNQLIWIRSDRKKADVWLAHKDGKHEMKWIENIDVPLEHHHHHH | failed
4 | MAKPNIDELNQILTSYQNTINDTLQLFEQVPSPTQDKLYWNDVLQISDHLSKQATIVGMLWITGEPPKAEAMKETMEAYFNALQGFLLHCHGSMVGAGTTLSSTIHASVKQIVDSSFRLLQGSVSLYEGSYEKGRKPTIPQLAGAVWEACSNLKNVPETNIKAIGRAMAHVAVSMKDVLREMKELKPASSSPDHNVSTNSDDDDLGDELSPEEFEVAKMVADIVSETLVVIKELIRAITCMIKLENPKDNSEFVDSFEKLLKLCQGIGVQIDELGACVYPPQEFGLMKQTVENMRESIGEIESDVKSSKNSSSEALSGSCRRLQSLIEHMVTELDTRIEAEVVYKMQNVTL | failed
5 | MKFDVIIIGGSYAGLSAALQLGRARKNILLVDAGERRNRFASHSHGFLGQDGKAPGEIIAEARRQIERYPTIHWVEGRVTDAKGSFGEFIVEIDGGRRETAGRLILAMGVTDELPEIAGLRERWGSAVFHCPYCHGYELDQGKIGVIAASPMAIHHALMLPDWGETTFFTNGIVEPDADQHALLAARGVRVETTRIREIAGHADVVLADGRSIALAGLFTQPKLRITVDWIEKLGCAVEEGPMGSTIVTDPMKQTTARGIFACGDVARPAGSVALAVGDGAMAGAAAHRSILFPEMR | not failed
6 | MEIKPVSPEIVSDKLTKVILVFYKTISEIIYPLAILGYCISVILIITGSCFHSRTVMKMGIVNFCVITLVLISYFFMPSFIGILKSIETILR | failed
7 | MTIKSDKWIRRMAQEHGMIEPFVERQVRGADDSRVISYGVSSYGYDVRCAAEFKVFTNIHSAVVDPKNFDEKSFVDINSDVCIIPPNSFALARTVEYFRIPRDVLTICLGKSTYARCGIIVNVTPLEPEWEGHVTLEFSNTTNLPAKIYANEGVAQMLFLQSDEACEVSYKDRGGKYQGQR | not failed
8 | MINHKIFPTADAVVKSLADDMLAYSQQGQPVHISLSGGSTPKMLFKLLASQPYANDIQWKNLHFWWGDERCVAPDDAESNYGEANALLFSKINMPAQNIHRILGENEPQAEAERFAQAMAHVIPTENGTPVFDWILLGVGADGHTASLFPGQTDYADANLSVVASHPESGQLRVSKTAKVLQAAKRISYLVLGAGKAEIVEQIHTTPAEQLPYPAAKIHSTSGVTEWYLDSDAAAKIA | not failed
9 | MSSPSLSPHYQKMLDDLDGQVLQLDRQVFRRLARLGYQPQVIFDVGASNSGWSYYIKQVVTEADFYLFEPLVDHVPDYQGLMEETLRVYPSFHLYKYALGDRDGTITVNVFDDPASSTTLPMTEGGPSINAVQVPLLTLDSALVKLGLPQPQVIKIDTQGNELSILRGAAQTLAKVDVLFLECWLYRGYGPKTPLLTEIAHWLLPFNFRLWDVSEPYRGPQGELTTLDCIFINTAAGLVPNWYY | failed
10 | MEELTQILKNNRTDDLTWFCSLSESELDLLISLKKLAIQRAKISGHQELADKFDLKLLRSLGLVLMEHARKRVQNDTSLAPSVVHQLRLLDNCNLLKTHVDDAVDIEEILTQICDNKSKKKARKRRR | failed
11 | MSLNETYMMITFQSGMDYWKRCLKGFEDAAQALNVTVEYRGAAQYDIQEQITVLEQAIAKNPAGIAISAIDPVELTDTINKAVDAGIPIVLFDSGAPDSHAHSFLGTNNYNAGMNAAYKMAELLDGEGEVAVITLPNQLNHQERTTGFKETLEAEFPAIEVIAVEDGRGDSLHSRRVAHQLLEDYPNLAGIFATEANGGVGVGDAVRLESRAGEIQIISFDTDKGTLDLVDEGIISATLAQGTWNMGYWSLTYLFHLHHGLTEPQILQTREEAPLPLYVDTGITIVTDENVDYYYADEGHHHHHH | not failed
12 | MPYFYVFLLLLTSLLWGGNFVVGKSLVDHASPMTLTNLRWMIAIVCLLPMVWFKEKKILPPRTAILPLILMGISGVALFNIFQFLALEKTSATNVGLISTLNAISIALFSVLFLKEKVNTLQILSMILSFFGVILVLLKGDFSLLFSLHFNSGDLWMIAAVCIWGIYSVCSKWATKTTTPLMATLYSGIFGVILLLPFNIGSFTVSNINTSFITSLLYTGLISTVLCMVFWNIGVQKLGATTSGIFLNFNPIFTAILAFIFLGEELTWIQILGTIVVVTGCYLFSHFKTVAVQPVRPLMRKHS | failed
13 | MTDARPHLRLRLARPEDMPALSALMDRAIGELLQDFLPPEGVKASYEIMGLDTQLIADGTYFVVEDGAAIAGCGGWSRRATLFGGDHSAGRDAALLDPKTDAARVRAMYTHPDHTRKGVGRIILDACEAAARAEGFSSVEMAATMGGVPLYRACGYHDIEPFEAVTSTGYRVPLIRMGKAL | failed
14 | MLRAIYRALWWLVAPLAVLRLVWRSRKERGYREHIGERFGFGPGRALARRIDEATPVVWVHAVSVGETRAAQPLVDALLRARPDVHVLLTHMTPSGRATGEQIFGERVSRCYLPYDLPHAVRRFLRAWRPSLGLVMETEVWPTLIDECRRADVPLVLTNARMSARSFGRAAKFGAAAREVFGGFSRVLAQSPADAERLTALGARNVAVLGNLKFDMTTPPELAARGRAWRAAIGERPVWVAASTRDGEEALVLDAFAALRTPDALLILVPRHPQRFAEVAALVERRGLRHARRTEWAADAAAAAAGGPAAPALPPDVAVLLGDSMGELGAYYAAADVAFIGGSLLPLGGQNLIEACAVGVPVLIGPHVFNFTQATADAVTAGACAQVQDPADLARTLDALFADHARRAAMGAAGAAFAARHRGATARTVDVLNALLPPPRVASSANDEGEAGGLDAGTAID | failed
15 | MEEFQFTKRVHNILKIAAEEGESNIIQPVHLFIGMCKEGTGVCSELYMYLFRNVGTDFLEKLSLRKQDDLTDQEYEKIGQYKVSYKVLEILQIAKKRMERFQQVLMNEGHVIYALFRADTFIENPQIQKEILRIVEEPRDLAVDLKCFVPAYTHLTCHVRKANSSDFGKLVSFVSEEFGERWLHSIEYGFRTYKENVPIYIAEQKEVIVGFACYDVVRGKKGLFGPMGTAKQNRVKSVGKQLLHCSLHSMKQDGYEYAIIGQAGPVEFYERCCNARLIPIMDY | failed
16 | VATPRGRLRVASPVLFSQLAMGRIGAGFYAAYPEVIIEVTAEDRLVDLVEEQFDVAIRINPDPDSRLVGRCFARDRLVVVAAPELPRPMPGAIRQTPAIVTSSFQPTHWKLDNGHLVLKPIPKLWFSS | failed
17 | SEEDNRAPQLWRKTLTAPAPFADETNCQCQAPHEKLTIAQARLGTPADRPVRVYADGIFDLFHSGHARALMQAKTLFPNSYLLVGVCSDDLTHKFKGFTVMNEAERYEALRHCRYVDEVIRDAPWTLTPEFLEKHKIDFVAHDDIPYSSAGSDDVYKHIKEAGMFVPTQRTEGISTSDIITRIVRDYDVYARRNLQRGYTAKELNVSFINEKRYRFQNQVDKMKEKVKNVEERSKEFVNRVEEKSHDLIQKWEEKSREFIGNFLELFGPDGAWKQMFQERSSRMLQALSPKQSPVSSPTRSRSPSRSPSPTFSWLPLKTSPPSSPKAASASISSMSEGDEDEK | failed
18 | MTVITLMLVLFEVVFSVSIYRYYYNGIVQYIESHAKTSTRFFSEYNSLYFIRLQEYSGDIISSFQLEGTELQLIDRHGSVIQSSSGEKVEGKVNIPQSLLEGEMYNQVTTKGNKKQLEVLSPLIHQGQTIGVLKYTTVLTNVNKKIIEIITFTISVGIVISGVVFLISRRLANSFVEPIESIIQASSQIAEGTLKQKIKEDYPGELGDLAHSLNYMAYKIDKAEQMKNEFIASISHEIRTPLTGIKGWSETLKTVDHLTEEEIKQGMGIISGETDRLIHLVEELLDFSRLQSNHFNLYKQKVQLYDILEETIWQLTPKSEEKEIQFITTIDRMELMGDRNRLKQVFLNIVQNAIKYSHKKSTIHIEATKIEGQAVIKVRDEGIGIAKEHLPYIEQSFYQINNHAAGAGIGLAIVKKMVELHSGVLSVTSKEGIGTTILIKLPL | failed
19 | MPTLKSYFLKDTSLRTEILAGATTFLTMVYIVFVNPKVLHDAGMDQGAVFTATCLITAFACALTGFIANTPIGVAPSVALNIYFSYSVVQGMGVDWQHALAMVFISGLLFLFLTLTKLRRLLVEAIPHNLQIAIVIGISLLIALIALENNQIIIGDQHNLMRLGSIIRPETGLFFLGFILILTLDYHKIPGAIIIGILSISVLSLILGLTSWQGLIAMPPSLEPTFLQLDFSGLSSIVALKTIFTFFLITVFDATGSLIGLLSPTIFKHEKNYYKRLTRSLTADAAASSLAGLMGSASTSPYIESATGIEAGGRTGLTALVIATGFILMLFLFPLAKMIPSFAVGPALLYVACCMIKHITNMKLQDITETAPCMVIIMMVPFTASIADGIGLGIILYTLLKLFTRQKPNPLIIVLSLVFTVFFLIN | failed
20 | MMNKNKTLEYYNKNADNFAKTTINVDFYETQNRFSTLLPEHGYILDFGCGSGRDTKYFLDQGFYVDATDGSEEMCHIASNYTGIQVRRLLFEELDENKKYDGIWACSSILHLPKNELKAVFMKMLKALKEDGIIYTSFKYGDFEGERNGRYFTDFTEKTFEEFVGEIDNLQLKEEWITGDVRPGRGEEKWLNVILQKN | failed
21 | MVKHHHLYELSPMVTGWTICVMVLRIYKKFLNLNAFELRLVLADEWGTQIEATIGPRFSAFYFDRIKENQWKTITTFLVRPNCEAIKTTPHQFRILFMDHTIVTSSTPRETGLLNKFTPFDYIVDDVVGNDTLVDLIGALVNVGILTNTASNENDMAGFKLPFTIMDKNKDTLVCEAYGEIAVDLEKRFRAFRKNNVVIALAWWKILRFYPVAAIPEVYLLAPMLAKIVSYVAESGVDSLKSFVKAGLLFKAAVYSKETLSCVRLDRSWYFMLAFHMCELQEAIAILDGIKDVFPHAGLLYIMLHSCAGSIPWEFYRMYKRRYYKFSEVDLFADKLMFHINEVGPRRQGTYKNS | failed
22 | MSKPPLFFIIIIALIVVAASFRFVQQRREKAANEAAPLQQKQVVVSNKREKPVNDRRSRQQEVIPAGTSMRYEVSFKPLNGGLEKTFRLQAQQYHALTVGDQGTLSYKGTRFVGFVSRTPDNE | failed

From a protein production outcome set (Wang et al. 2014)
